T1: human CD27L on the surface of cells (human, UniProt P32970 1-193)
T1 sequence: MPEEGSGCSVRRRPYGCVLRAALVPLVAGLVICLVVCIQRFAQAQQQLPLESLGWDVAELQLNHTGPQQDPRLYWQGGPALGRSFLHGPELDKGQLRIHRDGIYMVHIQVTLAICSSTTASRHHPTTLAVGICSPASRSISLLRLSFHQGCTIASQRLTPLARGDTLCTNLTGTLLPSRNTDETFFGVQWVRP

T2: cynomolgus monkey CD27L (cynomolgus monkey, UniProt A0A2K5WTU9 39-190)
T2 construct: also called cynomolgus CD27L
T2 sequence: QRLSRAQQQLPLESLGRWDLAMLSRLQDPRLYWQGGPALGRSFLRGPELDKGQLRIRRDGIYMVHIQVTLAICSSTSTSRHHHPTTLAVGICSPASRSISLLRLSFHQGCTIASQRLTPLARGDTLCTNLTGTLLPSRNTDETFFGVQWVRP

T3: Histidine-tagged human soluble CD27L (human, UniProt P32970 39-193)
T3 construct: also called Hu CD27L-his; soluble human CD27L-his; not shown: histidine tag
T3 sequence: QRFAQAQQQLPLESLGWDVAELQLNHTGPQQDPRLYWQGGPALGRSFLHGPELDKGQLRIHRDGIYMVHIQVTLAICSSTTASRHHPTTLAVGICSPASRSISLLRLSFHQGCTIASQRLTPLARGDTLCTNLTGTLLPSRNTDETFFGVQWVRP

T4: CD27L bound to Maxisorp plates (Homo sapiens (Human), UniProt P32970 39-193, limits assumed)
T4 sequence: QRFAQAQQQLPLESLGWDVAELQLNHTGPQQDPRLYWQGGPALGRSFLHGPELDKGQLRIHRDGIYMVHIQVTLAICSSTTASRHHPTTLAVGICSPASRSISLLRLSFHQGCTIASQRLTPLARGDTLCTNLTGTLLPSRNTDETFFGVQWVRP


Tests used:
[1] = target: T1, human CD27L on the surface of cells; experiment: cell-based or functional assay
[2] = target: T1, human CD27L on the surface of cells; experiment: cell-based or functional assay; remark: listed apart in the source
[3] = target: T1, human CD27L on the surface of cells; experiment: cell-based or functional assay; remark: listed apart in the source
[4] = target: T1, human CD27L on the surface of cells; experiment: flow cytometry (FACS) on 786-0 cells
[5] = target: T1, human CD27L on the surface of cells; experiment: Gyros, native human CD27L on Raji cells
cynomolgus monkey CD27L = target: T2, cynomolgus monkey CD27L; experiment: binding to cynomolgus CD27L (column 'Cyno Avidity EC50 nM'); method not stated for the figure
[6] = target: T1, human CD27L on the surface of cells; experiment: binding to cells with native human CD27L (column 'Native cell Avidity EC50 nM'); cell line and method not stated for the figure
[7] = target: T3, Histidine-tagged human soluble CD27L; experiment: BIACORE 3000, antibody captured by goat anti-human IgG on a CM5 chip, Hu CD27L-his as analyte (column 'Affinity Hu Biacore KD nM')
Method: Affinity for recombinant soluble human CD27L was determined using a CM5 chip on a BIACORE 3000. Goat anti-human IgG antibody was used to capture the test antibody. Binding and dissociation of Histidine-tagged human soluble CD27L was measured to determine Kₐ, Kₐ, and KD.

[8] = target: T4, CD27L bound to Maxisorp plates; experiment: ELISA on plate-bound CD27L; abolished = no curve could be generated or max signal less than 5%
Method: CD27L was bound to Maxisorp plates at room temperature for >2 hours, shaking with lug/mL in 100 uL. The plates were then blocked with 250 uL 10% Non-fat dry milk in PBS+0.05% Tween 20 for 2 hours. After a 4×300 uL PBS+0.05% Tween20 (PBST) wash the modified Ab and purified parental control titrations ranging from 0.045 to 100 ng/mL were applied to the plates and incubated for 1 hour. A horseradish peroxidase conjugated αhuFc detection antibody (Jackson) diluted 1:7000 was applied to the plates after another PBST wash, and incubated for 1 hour. A final wash was performed and TMB substrate was incubated for 10 minutes and stopped with phosphoric acid. An OD reading at 450 nm was taken and plotted vs. concentration. These curves were then analyzed with a 3 parameter non linear curve fit and the EC₅₀ and Max calculated signal were compared to the purified control. Binding was determined to be similar to parental if the EC₅₀ was within 2 fold and the Max signal was greater than 50%. The binding was reduced if the EC₅₀ increased greater than 2 fold and/or the max signal was less than 50%. The binding was abolished if no curve could be generated or the max signal was less than 5%.

| Binder | EC50 (cynomolgus monkey CD27L) | EC50 [6] | Kd [7] | binding result [8] | also measured |
| --- | --- | --- | --- | --- | --- |
| Ab4-MCC-DM1 (antibody, human IgG1, kappa, V domains shown, DM1 linked through MCC (SMCC) to lysine residues; 4.5-5.0 DM1 molecules per antibody on average, sites not given, also called Ab4 antibody drug conjugate; conjugated Ab4) VH: QVQLVESGGGVVQPGRSLRLSCAASGFTFSNYGIHWVRQAPGKGLEWVAVIWYDGSNKYYADSVKGRFTISRDNSKNTLYLQMNSLRAEDTAVYYCARDGGYSGYDSGFDYWGQGTLVTVSS VL: DIVMTQSPLSLPVTPGEPASISCRSSQSLLNSNGYNYLDWYLQKPGQSPQFLIYLGSYRASGVPDRFSGSGSGTDFTLRISRVEAEDVGVYYCIQTLQTPFTFGPGTKVDIKR | – | – | – | – | ADCC against Raji cells, EC50 (calcein release, NK effectors) [1]: 6 ng/mL; 786-0-IC50, Antibody Conc. (nM); cell growth inhibition, CellTiter-Glo, 4 days [2]: 0.07 nM; 786-0-IC50, Drug Conc. (nM); cell growth inhibition, CellTiter-Glo, 4 days [2]: 0.34 nM; ADCP, 786-0 EC50 (pM) [3]: 0.087 pM; ADCP, Raji EC50 (pM) [3]: 1.42 pM; EC50 [4]: 0.1 nM; Kd [5]: 0.023 nM |
| Ab4 (antibody, human IgG1, kappa, V domains shown, Fully human IgG1; also called A4; unconjugated parental Ab4) VH: QVQLVESGGGVVQPGRSLRLSCAASGFTFSNYGIHWVRQAPGKGLEWVAVIWYDGSNKYYADSVKGRFTISRDNSKNTLYLQMNSLRAEDTAVYYCARDGGYSGYDSGFDYWGQGTLVTVSS VL: DIVMTQSPLSLPVTPGEPASISCRSSQSLLNSNGYNYLDWYLQKPGQSPQFLIYLGSYRASGVPDRFSGSGSGTDFTLRISRVEAEDVGVYYCIQTLQTPFTFGPGTKVDIKR | 0.48 nM | 0.25 nM | 3.05 nM | – | ADCC against Raji cells, EC50 (calcein release, NK effectors) [1]: 10 ng/mL; ADCP, 786-0 EC50 (pM) [3]: 0.008 pM; ADCP, Raji EC50 (pM) [3]: 0.008 pM; EC50 [4]: 0.1 nM; Kd [5]: 0.014 nM |
| Ab1 (antibody, human IgG1, kappa, V domains shown, Fully human IgG1 from XenoMouse hybridoma) VH: QMQLQESGPGLVKPSQTLSLTCTVSDGSIISGVYYWSWIRQHPGKGLEWIGYIYYSGSTSYNPSLKSRLTMSVDTSKNQFSLKLSSVTAADTAVYYCARSGYSYALFDYWGQGTLVTVSS VL: DIQMTQSPSSLSASLGDRVTITCRASQSVDRYFNWYQQKPGKAPKVLIFAASSLQSGVPSRFGGSGSGTDFTLTISSLQPEDFATYYCQQSYSTPWTFGQGTKVEVKR | – | 0.32 nM | 0.62 nM | – | – |
| Ab2 (antibody, human IgG1, kappa, V domains shown, Fully human IgG1 from XenoMouse hybridoma) VH: QVQLQESGPGLVKPSQTLSLTCTVSGDSIISGGYYWSWIRQHPGKGLEWIGYIFYSGSTDYNPSLKSRVTISVDTSKNQFSLKLSSVTAADTAVYYCARSGYSYALFDHWGQGTLVTVSS VL: DIQMTQSPSSLSASVGDRVTISCRASQFIGRYFNWYQQQPGKAPKVLIYAESSLQSGVPSRFSGSGSGTEFTLTISSLQPEDFARYYCQQSYSTPWTFGQGTKVEIKR | – | 0.24 nM | 0.59 nM | – | – |
| Ab3 (antibody, IgG1, V domains shown, Tested as hybridoma supernatant) VH: EVQLLESGGGLVQPGGSLRLSCAASGFTFSSYAMSWVRQAPGKGLEWVSVISDSGGTTDYADSVKGRFTISRDNSKNTLYLQMNSLRAEDTAVYYCARHDYSNRYYFDYWGQGTLVTVSS VL: EIVLTQSPGTLSLSPGERATLSCRASQSFSSNYLAWYQQKPGQAPRLFIYGASSRATGIPDRFSGSGSGTDFTLTISRLEPEDFAVYFCQQYGISPCSFGQGTKLEIK | – | 4.18 nM | 4.35 nM | – | – |
| Ab5 (antibody, human IgG1, kappa, V domains shown, Fully human IgG1 from XenoMouse hybridoma) VH: QVQLVQSGAEVKKPGASVKVSCKASGYTFTSYDINWVRQATGQGLEWMGWMNPNSGNTGYAQKFQGRVTMTRNTSISTAYMELSSLRSEDTAVYYCARGYDFWSGYYYYYYGMDVWGQGTTVTVSS VL: EIVLTQSPGTLSLSPGERATLSCRASQSVSSSYLAWYQQRPGQAPRLLIYGASSRATGIPDRFSGSGSGTDFTLTISSLEPEDFAVYYCLQSGSSVPLTFGGGTKVEIKR | 1.4 nM | 0.66 nM | 10.4 nM | – | – |
| Ab6 (antibody, human IgG1, lambda, V domains shown, Fully human IgG1 from XenoMouse hybridoma) VH: QVQLVQSGAEVKKPGASVKVSCKASGYTFTSYGISWVRQAPGQGLEWMGWISAYNGYTHYAQKLQGRVTMTTDTSTSTAYMELRSLRSDDTAVYYCARDYGGNDYYGMDVWGQGTTVTVSS VL: QSVLTQPPSASGTPGQRVTISCSGSSSNIGINYVYWYQQLPGTAPKLLIYRSDQRPSGVPDRFSGSKSGTSASLALSGLRSEDEADYYCAAWDDSLSGVVFGGGTKLTVLG | 0.87 nM | 0.87 nM | 6.06 nM | – | – |
| Ab7 (antibody, human IgG1, lambda, V domains shown, Fully human IgG1 from XenoMouse hybridoma) VH: QVQLVESGGGVVQPGRSLRLSCAASGFTFSTYGMHWVRQAPGKGLEWVAVIWYDGSNKYYGDSVKGRFTISRDNSKNTLYLQMNSLRAEDTAVYYCARDNSHYYYGMDVWGQGTTVTVSS VL: QSVLTQPPSVSGAPGQRVTISCTGSSSNIGAGYDVNWYQQFPGTAPKLLIYVNNNRPSGVPDRFSGSTSGTSASLAITGLQAEDEADYYCQSYDTSLSASVFGGGTRLTVLG | 0.43 nM | 0.18 nM | 0.71 nM | – | – |
| Ab8 (antibody, human IgG1, kappa, V domains shown, also called A8; unconjugated Ab8) VH: QVQLVESGGGVVQPGRSLRLSCAASGFTFSSYGMHWVRQAPGKGLEWVAVIWYDGSDKYFADSVKGRFTISRDNSKNTLYLQMNSLRAEDTAVYYCARDGIAGARYVYFDYWGQGTLVTVSS VL: DIQMTQSPSSLSASVGDRVTITCRASQGISNYLAWFQQKPGKAPKSLIYAASSLQGGVPSKFSGSGSGTDFTLTISSLQPEDFATYYCQQYYNYPFTFGPGTTVDIKR | 0.34 nM | 0.09 nM | 10.8 nM | – | EC50 [4]: 0.02 nM; Kd [5]: 0.078 nM |
| Ab4 variant L55I-Y58F + G33S-I34L (antibody, V domains shown, Rest as Ab4 (IgG1)) VH: QVQLVESGGGVVQPGRSLRLSCAASGFTFSNYSLHWVRQAPGKGLEWVAVIWYDGSNKYYADSVKGRFTISRDNSKNTLYLQMNSLRAEDTAVYYCARDGGYSGYDSGFDYWGQGTLVTVSS VL: DIVMTQSPLSLPVTPGEPASISCRSSQSLLNSNGYNYLDWYLQKPGQSPQFLIYIGSFRASGVPDRFSGSGSGTDFTLRISRVEAEDVGVYYCIQTLQTPFTFGPGTKVDIK | – | – | – | no binding | – |
| Ab4 variant Parent LC + G33S-I34L (antibody, V domains shown, Rest as Ab4 (IgG1)) VH: QVQLVESGGGVVQPGRSLRLSCAASGFTFSNYSLHWVRQAPGKGLEWVAVIWYDGSNKYYADSVKGRFTISRDNSKNTLYLQMNSLRAEDTAVYYCARDGGYSGYDSGFDYWGQGTLVTVSS VL: DIVMTQSPLSLPVTPGEPASISCRSSQSLLNSNGYNYLDWYLQKPGQSPQFLIYLGSYRASGVPDRFSGSGSGTDFTLRISRVEAEDVGVYYCIQTLQTPFTFGPGTKVDIK | – | – | – | no binding | – |
| Ab4 variant Parent LC + S103G-G104S (antibody, V domains shown, Rest as Ab4 (IgG1)) VH: QVQLVESGGGVVQPGRSLRLSCAASGFTFSNYGIHWVRQAPGKGLEWVAVIWYDGSNKYYADSVKGRFTISRDNSKNTLYLQMNSLRAEDTAVYYCARDGGYGSYDSGFDYWGQGTLVTVSS VL: DIVMTQSPLSLPVTPGEPASISCRSSQSLLNSNGYNYLDWYLQKPGQSPQFLIYLGSYRASGVPDRFSGSGSGTDFTLRISRVEAEDVGVYYCIQTLQTPFTFGPGTKVDIK | – | – | – | no binding | – |
| Ab4 variant Q95N-T96S + G33S-I34L (antibody, V domains shown, Rest as Ab4 (IgG1)) VH: QVQLVESGGGVVQPGRSLRLSCAASGFTFSNYSLHWVRQAPGKGLEWVAVIWYDGSNKYYADSVKGRFTISRDNSKNTLYLQMNSLRAEDTAVYYCARDGGYSGYDSGFDYWGQGTLVTVSS VL: DIVMTQSPLSLPVTPGEPASISCRSSQSLLNSNGYNYLDWYLQKPGQSPQFLIYLGSYRASGVPDRFSGSGSGTDFTLRISRVEAEDVGVYYCINSLQTPFTFGPGTKVDIK | – | – | – | no binding | – |
| Ab4 variant Q95N-T96S + S103G-G104S (antibody, V domains shown, Rest as Ab4 (IgG1)) VH: QVQLVESGGGVVQPGRSLRLSCAASGFTFSNYGIHWVRQAPGKGLEWVAVIWYDGSNKYYADSVKGRFTISRDNSKNTLYLQMNSLRAEDTAVYYCARDGGYGSYDSGFDYWGQGTLVTVSS VL: DIVMTQSPLSLPVTPGEPASISCRSSQSLLNSNGYNYLDWYLQKPGQSPQFLIYLGSYRASGVPDRFSGSGSGTDFTLRISRVEAEDVGVYYCINSLQTPFTFGPGTKVDIK | – | – | – | no binding | – |
| Ab4 variant R24K-S26G + G33S-I34L (antibody, V domains shown, Rest as Ab4 (IgG1)) VH: QVQLVESGGGVVQPGRSLRLSCAASGFTFSNYSLHWVRQAPGKGLEWVAVIWYDGSNKYYADSVKGRFTISRDNSKNTLYLQMNSLRAEDTAVYYCARDGGYSGYDSGFDYWGQGTLVTVSS VL: DIVMTQSPLSLPVTPGEPASISCKSGQSLLNSNGYNYLDWYLQKPGQSPQFLIYLGSYRASGVPDRFSGSGSGTDFTLRISRVEAEDVGVYYCIQTLQTPFTFGPGTKVDIK | – | – | – | no binding | – |
